From the Human Domainome abundance scans (Beltran et al. 2025)

B1: Chromodomain-helicase-DNA-binding protein 5, residues 411 to 463; numbered along this chain, Q8TDI0 (parent)
chain: EEDDHMEFCRVCKDGGELLCCDACPSSYHLHCLNPPLPEIPNGEWLCPRCTCP

Variants of: B1
Assay: abundance fitness (aPCA) (normalised: wild type 0, dead -1); higher = more abundant; growth selection in yeast, the domain comes from the species named
Conditions: Homo sapiens

Abundance fitness of substitutions, site by site:
L46: M -0.188; A -0.027; Q -0.063; G -0.502; Y -0.115; H -0.152; N 0.294; K 0.079; P -0.559; V -0.017; E -0.025; F 0.101; T -0.102; R -0.034; W -0.155; C 0.088; I 0.116; S 0.061
L30: Q 0.016; V 0.019; R -0.018; S 0.02; W -0.201; Y -0.019
C47: Q -0.192; K -0.848; S -0.653; L -0.716; E -0.853; G -0.533; Y -0.929; A -0.542; N -0.285; P -0.899; I -0.009; H -0.235; F -0.318; W -0.914; M -0.906; T -0.551; D -0.678; R -0.737; V -0.808
E44: F -0.361; H 0.056; S 0.031; N -0.083; A -0.095; Q 0.041; Y -0.232; P -0.071; G -0.027; K 0.102; D 0.051; I -0.156; V -0.105; T 0.02; M -0.312; L -0.186; C -0.026
P35: V -0.145; F -0.24; H -0.353; D -0.246; Y -0.476; S -0.23; C -0.371; L -0.315; Q -0.12; N -0.172; W -0.404; A -0.299; I -0.183; E 0.034; G -0.182
H31: K -0.029; P -0.406; Y -0.455; T -0.16; V -0.268; L -0.246; F 0.516; S -0.075; D 0.072; G 0.089; W -0.361; A -0.092; R 0.05; M -0.088; I -0.044; C -0.421; Q -0.436; N 0.121; E 0.074
I40: K -0.104; Q 0.132; R -0.121; L 0.147; M -0.112; H -0.151; G -0.09; A -0.206; V -0.027; P 0.052; E -0.129; S -0.058; D -0.534; Y -0.059; T 0.113; C 0.116; N 0.063; W -0.633
L33: P -0.496; C -0.125; A -0.171; V -0.04; F -0.209; R -0.6; S -0.487; T -0.198; M -0.235; W -0.594; D -0.344; E -0.452; N -0.971; G -0.554; Q -0.484; I 0.252; Y -0.482; H -0.706; K -0.699
E39: A 0.006; N 0.116; G -0.135; H 0.098; P 0.139; I -0.138; M -0.113; D -0.203; C -0.438; R -0.301; Q 0.008; Y -0.329; S 0.091; V 0.025; F -0.235; K -0.104; L -0.418; W -0.617; T -0.209
W45: T -0.7; I -0.667; Y -0.299; V -0.579; Q -0.506; P -0.472; R -0.449; L -0.52; E -0.523; G -0.457; M -0.491; S -0.459; F -0.593; C -0.604; D -0.761; A -0.45; H -0.512
